# Assay: yeast display, Sf9 membrane polyspecificity reagent, FACS + sequencing; frameworks hold sequencing errors
# How it was run: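 Polyreactivity labels are assigned by the sorting gate from which each nanobody was recovered. The gates were low and high (top ~1%), set on anti-HA fluorescence for expression and streptavidin fluorescence for reagent binding. Before sorting, galactose-induced (36–48 hours) yeast display cells were stained for 1 hour at 4 °C with 10% biotinylated, detergent-solubilized Sf9 membrane reagent.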
row,Sequence,polyreactivity (PSR sort gate)
1,QVQLVESGGGLVQAGGSLRLSCAASGRILKRNAMGWYRQSPGKERELVAAISWSTGTTYYADSVKGRFTISRDNAKNTVYLQMNSLKPEDTAVYYCAKQIVSGRRVDRNDYWGQGTQVTVSS,low polyreactivity
2,QVQLVESGGGLVQAGGSLRLSCAASGRILLYNAMGWYRQAPGKERELVAAISRSGGSTYYADSVKGRFTISRDNAKNTVYLQMNSLKPEDTAVDYCAAQHGYTRYYYWGQGTQVTVSS,high polyreactivity
3,QVQLVESGGGLVQAGGSLRLSCAASGRILNINAMGWYRQAPGKERELVAAITWRGGRTFYADSVKGRFTISRDNAKNTVYLQMNSLKPEDTAVYYCAASSNTWYPTGYYWGQGTQVTVSS,high polyreactivity
4,QVQLVESGGGLVQAGGSLRLSCAASGRILPFNAMGWYRPAPGKERELVAAIRWRGSSTYYADSVKGRFTISRDNAKNTVYLQMNSLKPEDTAVYYCAAPSSVRGKVISADYGYWGQGTQVTVSS,high polyreactivity
5,QVQLVESGGGLVQAGGSLRLSCAASGRILPGYAMGWYRQAPGKERELVAAIRGNGDSTYYADSVKGRFTISRDNAKNTVYLQMNSLKPEDTAVYYCAARRVSTIQRDSYRGRKYGYWGQGTQVTVSS,low polyreactivity
6,QVQLVESGGGLVQAGGSLRLSCAASGRILPLYAMGWYRQAPGKERELVARIDSGGSTNYADSVKGRFTISRDNAKNTVYLQMNSLKPEDTAVYYCAAVVTAQAFAYFTYGYDYWGQGTQVTVSS,low polyreactivity
7,QVQLVESGGGLVQAGGSLRLSCAASGRILPSNAMGWYRQAPGKERELVAAIRSGDRTYYADSVKGRFTISRDNAKNTVYLQMNSLKPEDTAVYYCAAFYHHYYRYDYWGQGTQVTVSS,low polyreactivity
8,QVQLVESGGGLVQAGGSLRLSCAASGRILPSNAMGWYRQAPGKERELVAGITSGGSTDYADSVKGRFTISRDNAKNTVYLQMNSLKPEDTAVYYCAAHPAYRDSWGEYDYWGQGTQVTVSS,low polyreactivity
9,QVQLVESGGGLVQAGGSLRLSCAASGRILPSNAMGWYRQATGNERELVATISSSGGDTYYADSVKGRFTNSRDNAKNTVYLQMNSLKPEDTAVYYCAADSTWEGGYKYEYWGQGTQVTVSS,low polyreactivity
10,QVQLVESGGGLVQAGGSLRLSCAASGRILPWYAMGWYRQAPGKERELAARIRSTDSTNYADSVKGRFTISRDNAKNTVYLQMNSLKPEDTAVYYCAKVQWGFPYAWLGSDYWGQGTQVTVSS,low polyreactivity
11,QVQLVESGGGLVQAGGSLRLSCAASGRILPWYAMGWYRQAPGKERELVAGISSNGGSTYYADSVKGRFTISRDNAKNTVYLQMNSLKPEDSAVYYCAALFWYWRHYPSDYWGQGTQVTVSS,high polyreactivity
12,QVQLVESGGGLVQAGGSLRLSCAASGRILPYYAMGWYRPAPGKERELVAALTGGGGSTYYADSVKGRFTISRDNAKNTVYLQMNSLKPEDTAVYYCAKPRGRASLALYRFSLYYYWGQGTQVTVSS,high polyreactivity
13,QVQLVESGGGLVQAGGSLRLSCAASGRILRQYAMGWYRQAPGKERELVAAITSSGGSTYYADSVKGRFTNSRDNAKNTVYLQMNSLKPEDTAVYYCAARYYPSGYRKKMYYWGQGTQVTVSS,high polyreactivity
14,QVQLVESGGGLVQAGGSLRLSCAASGRILRWNAMGWYRQAPGKEREMVAAIDWRGGSTYYADSVKGRFTISRDNAKNTVYLQMNSLKPEDTAVYYCAVDYYPYEVSYVRMDYWGQGTQVTVSS,low polyreactivity
15,QVQLVESGGGLVQAGGSLRLSCAASGRILSANAMGWYRQAPGKERELVAAITYSGDNTYYADSVKGRFTISRDNAKNTVYLQMNSLKPEDTAVYYCAREFQVDGGEEDYWGQGTQVTVSS,low polyreactivity
16,QVQLVESGGGLVQAGGSLRLSCAASGRILSFYAMGWYRQAPGKEREFVATITWSGGSTYADSVKGRFTISRDNANNSVYLQMNSLKPEDTAVYYCNAELSNYKYDYWGQGTHVTVSS,low polyreactivity
17,QVQLVESGGGLVQAGGSLRLSCAASGRILSGTPMGLYRQAPRKERELVAAITNAGITKYADSVKGRFTISRDNAKNTVYLQMNSLKPEDTAVYYCATDRYAYKLYDYWGQGTKVTVSS,low polyreactivity
18,QVQLVESGGGLVQAGGSLRLSCAASGRILSHYAMGWYRQAPGKERELVASISGSDGSTYYADSVKGRFTISRDNAKNTVYLQMNSLKPEDTAVYYCAVDSYQTGVYFYYVYWDFDLGYWGQGTQVTVSS,low polyreactivity
19,QVQLVESGGGLVQAGGSLRLSCAASGRILSPYAMGWYRPAPGKERELVAAISRSGGSTYYADSVKGRFTISRDNAKNTVYLQMNSLKPEDTAVYYCNAVIAWYRSDEYDYWGQGTQVTVSS,high polyreactivity
20,QVQLVESGGGLVQAGGSLRLSCAASGRILSSYAMGWYRQAPGKERELVARISYSGGRTYYADSVKGRFTISRDNAKNTVYLQMNSLKPEDTAVYYCAAVSRVHFSYIYDYWGQGTQVTVSS,high polyreactivity

row,Sequence,polyreactivity (PSR sort gate)
1,QVQLVESGGGLVQAGGSLRLSCAASGRILSVYVMGWYRQAPGKERELVAAISRNGGRTYYADSVKGRFTISRDNAKNTVYLQMNSLKPEDTAVYYCAKSQRGTVYSYYYWGQGTQVTVSS,high polyreactivity
2,QVQLVESGGGLVQAGGSLRLSCAASGRILSYNAMGCYRQAPGKERELVAGISWSGGSTYYADSVKGRFTISRDNAKNTVYLQMNSLKPEDTAVYYCNKLQGLTWYNSPYGYWGQGTQVTVSS,high polyreactivity
3,QVQLVESGGGLVQAGGSLRLSCAASGRILSYYAMGWYRQAPGKERELVAAISWGGGRTFYADSVKGRFTISRDNAKNTVYLQMNSLQPEDTAVYYCNADSYRWGAHDYWGQGTQVTVSS,high polyreactivity
4,QVQLVESGGGLVQAGGSLRLSCAASGRILTSNAMGWYRKAPGKERELVAAISWSGGSTYYADSVKGRFTISRENAKNSVYLHMNRLKPEDTAGYYCAAPFTTTFDYWGQGTQVTVSS,low polyreactivity
5,QVQLVESGGGLVQAGGSLRLSCAASGRILTSNAMGWYRQAPGKERELVAAISWSGGSTYYADSVKGRFTISRDNAKNTVYLQMNILKPEDTAVYYCAAPLYWVDDFESGWRYYYWGQGTQVTVSS,low polyreactivity
6,QVQLVESGGGLVQAGGSLRLSCAASGRILTYYAMGWYRQAPGKERELVAAISWRAGYTYYADSVKGRFTISRDNAKNTVYLQMNSLKPEDTAVYYCAAETSNRGRRYYYWGQGTQVTVSS,high polyreactivity
7,QVQLVESGGGLVQAGGSLRLSCAASGRILVLNAMGWYIQAPGKERELVADITSGGSTYYADSVKGRFTISRDNEKNTVYLQMISLKPEHTAVYYCAADWNTYPDYLQSYFVSYEYNYWGQGTLVTVSS,low polyreactivity
8,QVQLVESGGGLVQAGGSLRLSCAASGRILVRNAMGRYRQAPGKERELVAVIRWSGGRTSYADSVKGRFTISRDNAKNTVYLQMNSLKPEDTAVYYCNKGGSYPTSNYKSYWVGVDYWGQGTQVTVSS,low polyreactivity
9,QVQLVESGGGLVQAGGSLRLSCAASGRILVVNAMGWYRQAPGKERELVASISQSGGITYADSVKGRFTISRDNAKNTVYLQMNSLKTEDTAVYYCAAKSTWEYDYWGQGTQVTVSS,low polyreactivity
10,QVQLVESGGGLVQAGGSLRLSCAASGRILWGNTMGWYRQAPGKERELVAAISWNGGGTYYADSVKGRFTISRDNAKNTVYLQMNSLKPEDTAVYYCATRYTYSTDTGYDYWGQGTQVTVSS,low polyreactivity
11,QVQLVESGGGLVQAGGSLRLSCAASGRILWSYAMGWYRQAPGKEREFVAAISRGGGTTYYADSVKGRFTISRDNAKNTVYLQMNSLKPEDTAVYYCNAGDHIRKRYGISATWGYGYGYWGQGTQVTVSS,high polyreactivity
12,QVQLVESGGGLVQAGGSLRLSCAASGRILWYNAMGWYRQAPGKERELVAAINRGGSTNYADSVKGRFRISRDNAKNTVYLQMNSLKPEDTAVYYCAAVHYRWWYRSAYDYWGQGTQVTVSS,low polyreactivity
13,QVQLVESGGGLVQAGGSLRLSCAASGRILYFYIGWYRQAPGTEREFVADISSTTSTYYADSVKGRFTISRDNAKNTVYLQMKSLKPEDTAVYYCAAPGDGYAYPIVWYGYSGYYYWGQGTQVTVSS,low polyreactivity
14,QVQLVESGGGLVQAGGSLRLSCAASGRILYGYTMGWYRQAPGKEREFVARITRRGGRTNYADSVKGRFTISRDNAKNTVYLQMNSLKPEDTAVYYCAADPIRDSWWQYFQDGREYDYWGQGTQVTVSS,low polyreactivity
15,QVQLVESGGGLVQAGGSLRLSCAASGRILYKYAMGWYRQAPGKERELVAAISWRGTTTYYADSVKGRFTISRDNAKNTVYLQMNSLKPEDTAVYYCAKDRSYGYFSRPVSQYDYWGQGTQVTVSS,high polyreactivity
16,QVQLVESGGGLVQAGGSLRLSCAASGRILYLNAMGWYRQAPGKERELVAAITRRAGSTRYADSVKGRFTISRDKAKNTVYLQMNSLKPEDTAVYYCAVAYYRNRMDYWGQGTQVTVSS,high polyreactivity
17,QVQLVESGGGLVQAGGSLRLSCAASGRILYPYAMGWYIQAPGKERELVAAITFIGGSTYYADSVKGRFTISRDNAKNTVYLQMNSLKPEDTAVYYCNAKPHRPSLLRWRIGNYWGQGTQVTVSS,high polyreactivity
18,QVQLVESGGGLVQAGGSLRLSCAASGRILYPYAMGWYRQAPGKERELVAAITFRGGNTYYADSVKGRFTISRDNAKNTVYLQMNSLKPEDTAVYYCAKRGGYWHKFDYWGQGTQVTVSS,high polyreactivity
19,QVQLVESGGGLVQAGGSLRLSCAASGRILYRYAMGWYRQATGKERELVAAISWSGGSTYYADSVKGRFTISRDNAKNSVYLQMNSLKPEDTAVYYCAARYKRAYSRDYWGQGTQVTVSS,high polyreactivity
20,QVQLVESGGGLVQAGGSLRLSCAASGRILYSYAMGWYRQAPGKEREFVAAIRRSGGSTYYADSVKGRFTISRDNAKNTVYLQMNSLKPEDTAVYYCAAGRRYSGSYDYWGQGTQVTVSS,high polyreactivity

# Source: the nanobody polyreactivity screen of Harvey et al. (2022)
